Results as given in patent publication US20090252681A1 (Ablynx, published 2009).

B1: 27-1-H7 (VHH)
VHH: EVQLVESGGGLVQAGGSLRLSCAASGRGAWAWFRQAPGKEREFVGGLSWSADSTYYADSVKGRFTISRDNAKNTVFLQMTNLKADDTAVYYCAAHRRPFASVFTTTRMYDYWGPGTQVTVSS
B2: 27-10-E8 (VHH)
VHH: EVQLVESGGGLVQAGGSLRLSCAASGRTFSTYTMAWFRQAPGKEREFVQGISRSDGGTYDADSVKGRFTISRDNAKNTVYLQMNSLKPEDTAVYFCAAASVKLVYVNPNRYSYWGQGTQVTVSS
notes: anti-EGFR Nanobody; tested as periplasmic extract or IMAC purified soluble Nanobody, tag not described; also called EGR 27-10-E8
B3: PMP38G7 (VHH)
VHH: EVQLVESGGGLVQAGGSLRLSCAASGRTFSSYVMGWFRQATGKEREFVATIAWDSGSTYYADSVKGRFTISRDNAKNTVHLQMNSLKPEDTAVYYCAASYNVYYNNYYYPISRDEYDYWGQGTQVTVSS
notes: also called EGR PMP38G7
B4: PMP7E12 (VHH)
VHH: EVQLVESGGGLVQAGGSLRLSCTASGRTFENNAMAWFRQAAGKEREFVAGFSGSGGATYYAHSVEGRFTISRDNAKNTVDLQMNSLSLEDTAVYLCAARRKSGEVVFTIPARYDYWGQGTQVTVSS
B5: PMP8C7 (VHH)
VHH: QVKLEESGGGLVQAGGSLRLSCAASGRAFSSYVMGWFRQAPGKEREIVGAISWRGGSTYYADSVKGRFTISRDNAKNTVYLQMNSLKPEDTAVYYCAAVYRVGAISEYSGTDYYTDEYDYWGQGTQVTVSS
notes: also called EGR PMP8C7
B6: PMP9C1 (VHH)
VHH: EVQLVESGGGLVQAGGSLRLSCAASGRTFSGFAMGWFRQAPGKEREFVAAISWSGGSLLYVDSVKGRFTISRDNAKNTVHLQMNSLKPGDTAVYYCAAMVGPPPRSLDYGLGNHYEYDYWGQGTQVTVSS
B7: PMP1C7 (VHH)
VHH: QVKLEESGGGLVQAGGSLRLSCVASGRTFSRTAMAWFRQAPGKEREFVATITWNSGTTRYADSVKGRFFISKDSAKNTIYLEMNSLEPEDTAVYYCAATAAAVITPTRGYYNYWGQGTQVTVSS
notes: anti-IGF-IR Nanobody; tag not described; also called IGR PMP1C7
B8: PMP7A5 (VHH)
VHH: EVQLVESGGGLVQAGGSLRLSCAASDRTFSSNNMGWFRQAPGKEREFVAAIGWGGLETHYSDSVKGRFTISRDNAKNTVYLQMNSLKPEDTARYYCAVSSTRTVIYTLPRMYNYWGQGTQVTVSS

Columns and labels:
purified EGFR (Sigma) = target: T1, purified EGFR (Sigma) (human, UniProt P00533 25-1210, limits assumed)
T1 construct: native receptor purified from A431 cells; also called solid phase coated EGFR

[1] = target: T2, EGFR on A431 derived membrane vesicles (human, UniProt P00533 25-1210)
T2 construct: whole, on cells; presented in membrane vesicles coated on ELISA plates, not on intact cells; also called EGFR harboring A431 vesicles; EGFR expressing A431 vesicles

[2] = target: T3, cell surface expressed EGFR (human, UniProt P00533 25-1210)
T3 construct: whole, on cells; also called EGFR on A431 tumor cells; EGFR on HER14 cells

Recombinant human IGF-IR = target: T4, Recombinant human IGF-IR (human, UniProt P08069 31-932); experiment: SPR (BIAcore), immobilized IGF-IR
T4 construct: bought; also called rhIGFIR; rhIGF-IR

koff (purified EGFR (Sigma)) | other results | Binder
0.0031 s⁻¹ |  | B1
0.0017 s⁻¹ | IC50 (read off the curve) [1]: ~0.9 nM | B2
0.00017 s⁻¹ |  | B3
0.0015 s⁻¹ |  | B4
 | binding result [1]: binds | B5
 | binding result [1]: binds; binding result [2]: binds | B6
 | koff (Recombinant human IGF-IR): 0.0019 s⁻¹ | B7
0.0015 s⁻¹ |  | B8
